Experimental data: the supplement of paper PMC10724198

Columns and labels:
Saccharomyces cerevisiae [1] = experiment: protein stability index of tFT-peptide fusion in deletion strain of DAS1 (PSI (0-1 scale)); higher = more stable (slower turnover)
Experimental: (§1)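 MPS profiling in S. cerevisiae of two library types built from selected 12-aa C-degron peptides (IN1, IN2, LN1, LN3, VN2, R1-R5, W1-W3, Atg1 and Rpa12 C-termini): saturation mutagenesis libraries and C-terminal +1 capping libraries (13 aa). Each peptide is fused to the C-terminus of a sfGFP-mCherry timer, after a GGGS linker. Cells are FACS-sorted into 8 mCherry/sfGFP bins and sequenced. PSI runs from 0 (unstable) to 1 (stable), measured once in wild type and in the das1Δ or doa10Δ background.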

Saccharomyces cerevisiae [2] = experiment: protein stability index of tFT-peptide fusion in wild type (PSI (0-1 scale)); higher = more stable (slower turnover); conditions: genetic background: wild type
Experimental: as §1
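Throughout, for protein stability index of tFT-peptide fusion in deletion strain of DAS1: PSI is a weighted mean of each variant's read distribution over the sorted stability bins, computed only for variants having over 10 reads in total.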
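Throughout, for protein stability index of tFT-peptide fusion in wild type: PSI derived as read-weighted mean over the 8 sorting bins, only variants exceeding 10 total reads kept, mCherry placed adjacent to the peptide and sfGFP distal.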

| Sequence | protein stability index (Saccharomyces cerevisiae [1]) | protein stability index (Saccharomyces cerevisiae [2]) |
| --- | --- | --- |
| CRGAVGGWRLVG | 0.647 | 0.163 |
| CTCCGYKFRTNN | 0.676 | 0.294 |
| CTKCGYKFRTNN | 0.687 | 0.258 |
| CTNCGYKFRTNN | 0.696 | 0.216 |
| CTSCGAKFRTNN | 0.723 | 0.502 |
| CTSCGCKFRTNN | 0.694 | 0.543 |
| CTSCGLKFRTNN | 0.691 | 0.34 |
| CTSCGVKFRTNN | 0.692 | 0.486 |
| CTSCGYKCRTNN | 0.661 | 0.601 |
| CTSCGYKFATNN | 0.695 | 0.385 |
| CTSCGYKFHTNN | 0.713 | 0.429 |
| CTSCGYKFRDNN | 0.663 | 0.673 |
| CTSCGYKFRQNN | 0.69 | 0.497 |
| CTSCGYKFRTCN | 0.702 | 0.18 |
| CTSCGYKFRTNF | 0.712 | 0.417 |
| CTSCGYKFRTNNH | 0.706 | 0.687 |
| CTSCGYKFRTNNK | 0.682 | 0.669 |
| CTSCGYKFRTNR | 0.692 | 0.696 |
| CTSCGYKFRTNY | 0.742 | 0.611 |
| CTSCGYKFRTQN | 0.663 | 0.201 |
| CTSCGYKFSTNN | 0.713 | 0.684 |
| CTSCYYKFRTNN | 0.639 | 0.199 |
| CTSEGYKFRTNN | 0.68 | 0.507 |
| CTSQGYKFRTNN | 0.678 | 0.251 |

| Sequence | protein stability index (Saccharomyces cerevisiae [1]) | protein stability index (Saccharomyces cerevisiae [2]) |
| --- | --- | --- |
| CTTCGYKFRTNN | 0.677 | 0.267 |
| DLIQPLPVQFLN | 0.59 | 0.127 |
| ERWRVGLWRGAS | 0.741 | 0.378 |
| ETSCGYKFRTNN | 0.672 | 0.266 |
| FDMRWTFRYWVN | 0.557 | 0.089 |
| FEMRWTFRYWVN | 0.437 | 0.0443 |
| FFMRWTFRYWVN | 0.371 | 0.0417 |
| FSERWTFRYWVN | 0.604 | 0.122 |
| FSMCWTFRYWVN | 0.412 | 0.0491 |
| FSMDWTFRYWVN | 0.543 | 0.0547 |
| FSMIWTFRYWVN | 0.301 | 0.0367 |
| FSMKWTFRYWVN | 0.565 | 0.0449 |
| FSMPWTFRYWVN | 0.598 | 0.11 |
| FSMRKTFRYWVN | 0.577 | 0.0767 |
| FSMRPTFRYWVN | 0.562 | 0.12 |
| FSMRWHFRYWVN | 0.756 | 0.0543 |
| FSMRWIFRYWVN | 0.535 | 0.163 |
| FSMRWMFRYWVN | 0.528 | 0.094 |
| FSMRWPFRYWVN | 0.569 | 0.0756 |
| FSMRWRFRYWVN | 0.584 | 0.0911 |
| FSMRWTFRMWVN | 0.31 | 0.0197 |
| FSMRWTFRPWVN | 0.6 | 0.245 |
| FSMRWTFRVWVN | 0.271 | 0.035 |
| FSMRWTFRYPVN | 0.555 | 0.548 |

| Sequence | protein stability index (Saccharomyces cerevisiae [1]) | protein stability index (Saccharomyces cerevisiae [2]) |
| --- | --- | --- |
| FSMRWTFRYWCN | 0.516 | 0.081 |
| FSMRWTFRYWVF | 0.439 | 0.0705 |
| FSMRWTFRYWVND | 0.557 | 0.539 |
| FSMRWTFRYWVNG | 0.537 | 0.431 |
| FSMRWTFRYWVNM | 0.543 | 0.113 |
| FSMRWTYRYWVN | 0.504 | 0.0544 |
| FTMRWTFRYWVN | 0.428 | 0.0324 |
| GSLAASFWRVVG | 0.689 | 0.147 |
| GVVYLSCVACIN | 0.0346 | 0.0144 |
| HKHKKGQKQKIN | 0.604 | 0.114 |
| KFHKKGQKQKIN | 0.576 | 0.139 |
| KKGKKGQKQKIN | 0.592 | 0.11 |
| KKHGKGQKQKIN | 0.707 | 0.0862 |
| KKHKKGAKQKIN | 0.608 | 0.0819 |
| KKHKKGHKQKIN | 0.592 | 0.111 |
| KKHKKGQFQKIN | 0.618 | 0.112 |
| KKHKKGQKCKIN | 0.59 | 0.153 |
| KKHKKGQKQKFN | 0.635 | 0.307 |
| KKHKKGQKQKHN | 0.653 | 0.439 |
| KKHKKGQKQKIM | 0.609 | 0.179 |
| KKHKKGQKQKINE | 0.662 | 0.635 |
| KKHKKGQKQKIV | 0.596 | 0.136 |
| KKHKKGQKQKLN | 0.602 | 0.133 |
| KKHKKGQKQKTN | 0.619 | 0.472 |

| Sequence | protein stability index (Saccharomyces cerevisiae [1]) | protein stability index (Saccharomyces cerevisiae [2]) |
| --- | --- | --- |
| KKHKKGQKQNIN | 0.54 | 0.618 |
| KKHKKGQKQRIN | 0.642 | 0.127 |
| KKHKKGQKQVIN | 0.629 | 0.579 |
| KKHKKGQKQYIN | 0.678 | 0.24 |
| KKHKKLQKQKIN | 0.602 | 0.054 |
| KKHKKNQKQKIN | 0.585 | 0.217 |
| KKHKKRQKQKIN | 0.587 | 0.0558 |
| KKHKKVQKQKIN | 0.619 | 0.165 |
| KKHKTGQKQKIN | 0.628 | 0.0826 |
| KKHWKGQKQKIN | 0.594 | 0.112 |
| KRGAVGGWRLVG | 0.648 | 0.165 |
| KSHKKGQKQKIN | 0.6 | 0.119 |
| KYHKKGQKQKIN | 0.595 | 0.0981 |
| LIILRQKMNHQN | 0.661 | 0.152 |
| LIVYLSCVACIN | 0.0335 | 0.0145 |
| LKGLRQKMNHQN | 0.669 | 0.196 |
| LKIKRQKMNHQN | 0.683 | 0.208 |
| LKILMQKMNHQN | 0.687 | 0.244 |
| LKILQQKMNHQN | 0.676 | 0.163 |
| LKILRDKMNHQN | 0.677 | 0.232 |
| LKILRKKMNHQN | 0.662 | 0.224 |
| LKILRQFMNHQN | 0.664 | 0.192 |
| LKILRQKKNHQN | 0.678 | 0.312 |
| LKILRQKLNHQN | 0.676 | 0.187 |

| Sequence | protein stability index (Saccharomyces cerevisiae [1]) | protein stability index (Saccharomyces cerevisiae [2]) |
| --- | --- | --- |
| LKILRQKMIHQN | 0.682 | 0.196 |
| LKILRQKMMHQN | 0.62 | 0.232 |
| LKILRQKMNHFN | 0.675 | 0.21 |
| LKILRQKMNHGN | 0.672 | 0.47 |
| LKILRQKMNHHN | 0.688 | 0.247 |
| LKILRQKMNHQF | 0.678 | 0.255 |
| LKILRQKMNHQH | 0.68 | 0.231 |
| LKILRQKMNHQNC | 0.661 | 0.606 |
| LKILRQKMNHQNQ | 0.685 | 0.623 |
| LKILRQKMNHWN | 0.666 | 0.216 |
| LKILRQKMSHQN | 0.682 | 0.37 |
| LKILRQKMWHQN | 0.657 | 0.238 |
| LKILRQTMNHQN | 0.677 | 0.224 |
| LKILRVKMNHQN | 0.646 | 0.187 |
| LKILTQKMNHQN | 0.688 | 0.276 |
| LKILWQKMNHQN | 0.67 | 0.206 |
| LKIWRQKMNHQN | 0.687 | 0.176 |
| LKIYRQKMNHQN | 0.689 | 0.182 |
| LRGAVGGWRLVG | 0.681 | 0.149 |
| LSILRQKMNHQN | 0.675 | 0.127 |
| LSLAASFWRVVG | 0.664 | 0.129 |
